Common to all, as to conditions: remark: other sources report otherwise
The target in test [1] is T1, EB1-GFP (C-terminally EGFP-His-tagged human EB1) (human), Q15691.
T1 chain: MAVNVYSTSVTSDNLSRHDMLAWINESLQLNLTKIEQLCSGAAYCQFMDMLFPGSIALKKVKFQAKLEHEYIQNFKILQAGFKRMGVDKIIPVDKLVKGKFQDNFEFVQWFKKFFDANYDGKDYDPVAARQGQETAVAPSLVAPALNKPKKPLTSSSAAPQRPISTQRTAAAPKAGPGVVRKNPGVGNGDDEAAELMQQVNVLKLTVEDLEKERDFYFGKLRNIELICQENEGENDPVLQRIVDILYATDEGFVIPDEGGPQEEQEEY
In words: AUC; fluorescence sedimentation velocity (GFP signal at 488 nm), 22°C; dilution series from about 500 to about 0.5 nM (monomer equivalents); 20 mM Tris-HCl pH 7.5, 300 mM NaCl, 0.2 mg/ml BSA, 2 mM DTT or 0.1 mM TCEP; samples incubated 16 hours at 22°C; dimer to monomers; apparent Kd.

In test [2] the target is T1, EB1-GFP (C-terminally EGFP-His-tagged …). In words: SEC-MALS; Superdex 200 10/30 with in-line multi-angle light scattering; 1 to 4 mg/ml injected in 100 µl (about 1 µM at the peak); 20 mM Tris-HCl pH 7.5, 300 mM NaCl, 2 mM DTT; room temperature; single experiments.
Test [3] addresses T2, EB1-GFP[A206K] (human), Q15691.
T2 chain: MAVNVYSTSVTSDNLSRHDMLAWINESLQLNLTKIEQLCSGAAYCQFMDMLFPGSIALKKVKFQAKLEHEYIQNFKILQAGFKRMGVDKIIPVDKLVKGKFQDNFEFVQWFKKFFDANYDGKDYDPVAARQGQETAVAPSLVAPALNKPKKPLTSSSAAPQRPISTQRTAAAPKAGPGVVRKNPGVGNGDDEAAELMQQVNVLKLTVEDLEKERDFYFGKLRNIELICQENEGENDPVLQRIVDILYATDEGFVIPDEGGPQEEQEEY
Briefly: AUC; fluorescence sedimentation velocity (GFP signal at 488 nm), 22°C; dilution series from about 500 to about 0.5 nM (monomer equivalents); 20 mM Tris-HCl pH 7.5, 300 mM NaCl, 0.2 mg/ml BSA, 2 mM DTT or 0.1 mM TCEP; samples incubated 16 hours at 22°C; dimer to monomers; apparent Kd.

B1: EB1-GFP (C-terminally EGFP-His-tagged human EB1), Q15691 1-268 (natural protein)
chain: MAVNVYSTSVTSDNLSRHDMLAWINESLQLNLTKIEQLCSGAAYCQFMDMLFPGSIALKKVKFQAKLEHEYIQNFKILQAGFKRMGVDKIIPVDKLVKGKFQDNFEFVQWFKKFFDANYDGKDYDPVAARQGQETAVAPSLVAPALNKPKKPLTSSSAAPQRPISTQRTAAAPKAGPGVVRKNPGVGNGDDEAAELMQQVNVLKLTVEDLEKERDFYFGKLRNIELICQENEGENDPVLQRIVDILYATDEGFVIPDEGGPQEEQEEY
What is called stoichiometry N is the number of molecules, sites or subunits per partner or assembly. Consider B1, for which the stoichiometry N in test [1] and in test [2] was 2 each time.

B2: EB1-GFP[A206K], Q15691 1-268 (natural protein)
chain: MAVNVYSTSVTSDNLSRHDMLAWINESLQLNLTKIEQLCSGAAYCQFMDMLFPGSIALKKVKFQAKLEHEYIQNFKILQAGFKRMGVDKIIPVDKLVKGKFQDNFEFVQWFKKFFDANYDGKDYDPVAARQGQETAVAPSLVAPALNKPKKPLTSSSAAPQRPISTQRTAAAPKAGPGVVRKNPGVGNGDDEAAELMQQVNVLKLTVEDLEKERDFYFGKLRNIELICQENEGENDPVLQRIVDILYATDEGFVIPDEGGPQEEQEEY
With B2, the stoichiometry N in test [3] worked out at 2.

These data come from paper PMC3765442.
